We go through 1 molecule from patent CN115028713A (JIANGSU DONGKANG BIOMEDICAL TECH CO LTD, dated 2022).

The experiment concerns the target 重组新冠N蛋白 N-HIS6X (recombinant SARS-CoV-2 N protein with His6 tag) (SARS-CoV-2, UniProt P0DTC9 1-419).

B1: 单克隆抗体OP2 (anti-SARS-CoV-2 N protein monoclonal antibody OP2) (antibody, V domains shown)
VH: DVQLVESGGGLVQPGGSRKLSCAASGSTFSNFGMHWVRQAPEKGLEWVAYISSASSIIYYADTVKGRFTISRDNPKNTLFLQMTSLRSEDTAMYYCARSAMDYWGQGTSVTVSS
VL: DIVLTQSPASLAVSLGQRATISCKASQSVNYSGDSYMNWFQQKPGQPPKLLIYAASNLESGIPARFSGSGSGTDFTLNIHPVEEEDAATYYCQQSEEQPYTFGGGTKLEIK
notes: also called 抗N蛋白的抗体
In the case of B1, the EC50 stood at 0.0113 µg/mL.
